Reference: US20240025971A1 (ATRECA, published 2024)

Key:
Assay in all cases: cell-based or functional assay
[1] = target: SARS-CoV-2 Alpha (B.1.1.7) full-length Spike protein (SARS-CoV-2, UniProt P0DTC2 14-1273)
[2] = target: SARS-CoV-2 Delta-plus (B.1.617.2.1) full-length Spike protein (SARS-CoV-2, UniProt P0DTC2 14-1273)
[3] = target: SARS-CoV-2 Epsilon (B.1.427/9) full-length Spike protein (SARS-CoV-2, UniProt P0DTC2 14-1273)
[4] = target: SARS-CoV-2 Gamma (P.1.B.1.1.28) full-length Spike protein (SARS-CoV-2, UniProt P0DTC2 14-1273)
[5] = target: SARS-CoV-2 Delta (B.1.617.2) full-length Spike protein (SARS-CoV-2, UniProt P0DTC2 14-1273)
[6] = target: SARS-CoV-2 Beta (B.1.351) full-length Spike protein (SARS-CoV-2, UniProt P0DTC2 14-1273)
[7] = target: SARS-CoV-2 Wuhan D614G full-length Spike protein (SARS-CoV-2, UniProt P0DTC2 14-1273)

Binder | Pseudovirus Neutralization [1] | Pseudovirus Neutralization [2] | Pseudovirus Neutralization [3] | Pseudovirus Neutralization [4] | Pseudovirus Neutralization [5] | Pseudovirus Neutralization [6] | Pseudovirus Neutralization [7]
AB-009610 (antibody, V domains shown, human IgG1) VH: QVQLVQSGAEVKKPGSSVKVSCKASGGTFSNYAISWVRQAPGQGLEWMGRIIPILGIANYAQKFQGRVTITADKSTSTAYMELSSLRSEDTAVYYCATTPYYYDSSGYYLDYWGQGTLVTVSS VL: not shown | 2.84 µg/mL | > 50 µg/mL | > 50 µg/mL | > 50 µg/mL | > 50 µg/mL | > 50 µg/mL | 2.21 µg/mL
AB-010020 (antibody, V domains shown, human IgG1) VH: QMQLVQSGPEVKKPGTSVKVSCKASGFTFTSSAVQWVRQARGQRLEWIGWIVVGSGNTNYAQKFQERVTITRDMSTSTAYMELSSLRSEDTAVYYCAAPACSSTSCYDGFDIWGQGTMVTVSS VL: not shown | 0.013 µg/mL | 0.001 µg/mL | 0.003 µg/mL | 0.0114 µg/mL | 0.003 µg/mL | 0.018 µg/mL | 0.003 µg/mL
AB-010021 (antibody, V domains shown, human IgG1; also called AB-0010021) VH: QMQLVQSGPEVKKPGTSVKVSCKASGFTFTSSAVQWVRQARGQRLEWIGWIVVGSGNTNYAQKFQERVTITRDMSTSTAYMELSSLRSEDTAVYYCAAVYCSGGSCLDAFDIWGQGTMVTVSS VL: not shown | 2.69 µg/mL | 0.078 µg/mL | 0.629 µg/mL | 5.39 µg/mL | 0.574 µg/mL | 8.27 µg/mL | 0.7 µg/mL
AB-009271 (antibody, V domains shown, human IgG1) VH: EVQLVESGGGLIQPGGSLRLSCAASGFIVSSNYMSWVRQAPGKGLEWVSVIYSGGSTYYADSVKGRFTISRDNSKNTLYLQMNSLRAEDTAVYYCARDYGDFYFDYWGQGTLVTVSS VL: EIVMTQSPATLSVSPGERATLSCRASQSVSSNLAWYQQKPGQAPRLLIYGASTRATGIPARFSGSGSGTEFTLTISSLQSEDFAVYYCQQYYNWPRTFGQGTKVEIK | 0.275 µg/mL | > 50 µg/mL | 0.028 µg/mL | > 50 µg/mL | 0.012 µg/mL | > 50 µg/mL | 0.036 µg/mL
AB-009613 (antibody, V domains shown, human IgG1) VH: EVQLVESGGGLIQPGGSLRLSCAASGFTVSSNYMSWVRQAPGKGLEWVSVIYSGGSTYYADSVKGRFTISRDNSKNTLYLQMNSLRAEDTAVYYCARDYGDFYFDYWGQGTLVTVSS VL: not shown | 7.23 µg/mL | > 50 µg/mL | 1.16 µg/mL | > 50 µg/mL | 0.101 µg/mL | > 50 µg/mL | 0.83 µg/mL
